US20130157953A1, “TREATMENT OF CARDIAC CONDITIONS” (Zealand Pharma A/S, priority 2010, published 2013)
Numbered stars: 1 amine (or outer) side, 2 acyl side, 3 side chain; on linkers, the order of the positions; unused ones are H or OH. Bridge positions count the residues as written; N and C are the ends. Square brackets hold non-standard residues; d marks the D form. Side chains are listed from the residue outwards. * marks the point of attachment. γGlu = O=C(O)[C@H](CCC(=O)[*:2])N[*:1]; Palmitoyl = CCCCCCCCCCCCCCCC(=O)*; Aib = CC(C)(N)C(=O)O

B1: Compound 202 (peptide)
peptide: H-HSQGTFTSDYSKYLDK([γGlu-Palmitoyl])KAAHDFVEWLLRA-NH2
SMILES: CCCCCCCCCCCCCCCC(=O)N[C@@H](CCC(=O)NCCCC[C@H](NC(=O)[C@H](CC(=O)O)NC(=O)[C@H](CC(C)C)NC(=O)[C@H](Cc1ccc(O)cc1)NC(=O)[C@H](CCCCN)NC(=O)[C@H](CO)NC(=O)[C@H](Cc1ccc(O)cc1)NC(=O)[C@H](CC(=O)O)NC(=O)[C@H](CO)NC(=O)[C@@H](NC(=O)[C@H](Cc1ccccc1)NC(=O)[C@@H](NC(=O)CNC(=O)[C@H](CCC(N)=O)NC(=O)[C@H](CO)NC(=O)[C@@H](N)Cc1c[nH]cn1)[C@@H](C)O)[C@@H](C)O)C(=O)N[C@@H](CCCCN)C(=O)N[C@@H](C)C(=O)N[C@@H](C)C(=O)N[C@@H](Cc1c[nH]cn1)C(=O)N[C@@H](CC(=O)O)C(=O)N[C@@H](Cc1ccccc1)C(=O)N[C@H](C(=O)N[C@@H](CCC(=O)O)C(=O)N[C@@H](Cc1c[nH]c2ccccc12)C(=O)N[C@@H](CC(C)C)C(=O)N[C@@H](CC(C)C)C(=O)N[C@@H](CCCNC(=N)N)C(=O)N[C@@H](C)C(N)=O)C(C)C)C(=O)O
B2: Compound 44 (peptide)
peptide: H-H[dS]QGTFTSDYSKYLDSKAAHDFVEWLLRA-NH2
SMILES: CC(C)C[C@H](NC(=O)[C@H](CC(C)C)NC(=O)[C@H](Cc1c[nH]c2ccccc12)NC(=O)[C@H](CCC(=O)O)NC(=O)[C@@H](NC(=O)[C@H](Cc1ccccc1)NC(=O)[C@H](CC(=O)O)NC(=O)[C@H](Cc1c[nH]cn1)NC(=O)[C@H](C)NC(=O)[C@H](C)NC(=O)[C@H](CCCCN)NC(=O)[C@H](CO)NC(=O)[C@H](CC(=O)O)NC(=O)[C@H](CC(C)C)NC(=O)[C@H](Cc1ccc(O)cc1)NC(=O)[C@H](CCCCN)NC(=O)[C@H](CO)NC(=O)[C@H](Cc1ccc(O)cc1)NC(=O)[C@H](CC(=O)O)NC(=O)[C@H](CO)NC(=O)[C@@H](NC(=O)[C@H](Cc1ccccc1)NC(=O)[C@@H](NC(=O)CNC(=O)[C@H](CCC(N)=O)NC(=O)[C@@H](CO)NC(=O)[C@@H](N)Cc1c[nH]cn1)[C@@H](C)O)[C@@H](C)O)C(C)C)C(=O)N[C@@H](CCCNC(=N)N)C(=O)N[C@@H](C)C(N)=O
B3: Compound 261 (peptide)
peptide: H-HSQGTFTSDYSKYLDSKAAHDFVEWLLKA-NH2
modifications: lactam 24-28
SMILES: CC(C)C[C@@H]1NC(=O)[C@H](CC(C)C)NC(=O)[C@H](Cc2c[nH]c3ccccc23)NC(=O)[C@@H](NC(=O)[C@@H](NC(=O)[C@H](Cc2ccccc2)NC(=O)[C@H](CC(=O)O)NC(=O)[C@H](Cc2c[nH]cn2)NC(=O)[C@H](C)NC(=O)[C@H](C)NC(=O)[C@H](CCCCN)NC(=O)[C@H](CO)NC(=O)[C@H](CC(=O)O)NC(=O)[C@H](CC(C)C)NC(=O)[C@H](Cc2ccc(O)cc2)NC(=O)[C@H](CCCCN)NC(=O)[C@H](CO)NC(=O)[C@H](Cc2ccc(O)cc2)NC(=O)[C@H](CC(=O)O)NC(=O)[C@H](CO)NC(=O)[C@@H](NC(=O)[C@H](Cc2ccccc2)NC(=O)[C@@H](NC(=O)CNC(=O)[C@H](CCC(N)=O)NC(=O)[C@H](CO)NC(=O)[C@@H](N)Cc2c[nH]cn2)[C@@H](C)O)[C@@H](C)O)C(C)C)CCC(=O)NCCCC[C@@H](C(=O)N[C@@H](C)C(N)=O)NC1=O
B4: Compound 45 (peptide)
peptide: H-H[Aib]QGTFTSDYSKYLDSKAAHDFVEWLLRA-NH2
SMILES: CC(C)C[C@H](NC(=O)[C@H](CC(C)C)NC(=O)[C@H](Cc1c[nH]c2ccccc12)NC(=O)[C@H](CCC(=O)O)NC(=O)[C@@H](NC(=O)[C@H](Cc1ccccc1)NC(=O)[C@H](CC(=O)O)NC(=O)[C@H](Cc1c[nH]cn1)NC(=O)[C@H](C)NC(=O)[C@H](C)NC(=O)[C@H](CCCCN)NC(=O)[C@H](CO)NC(=O)[C@H](CC(=O)O)NC(=O)[C@H](CC(C)C)NC(=O)[C@H](Cc1ccc(O)cc1)NC(=O)[C@H](CCCCN)NC(=O)[C@H](CO)NC(=O)[C@H](Cc1ccc(O)cc1)NC(=O)[C@H](CC(=O)O)NC(=O)[C@H](CO)NC(=O)[C@@H](NC(=O)[C@H](Cc1ccccc1)NC(=O)[C@@H](NC(=O)CNC(=O)[C@H](CCC(N)=O)NC(=O)C(C)(C)NC(=O)[C@@H](N)Cc1c[nH]cn1)[C@@H](C)O)[C@@H](C)O)C(C)C)C(=O)N[C@@H](CCCNC(=N)N)C(=O)N[C@@H](C)C(N)=O
B5: Compound 208 (peptide)
peptide: H-H[Aib]QGTFTSDYSKYLDSK([γGlu-Palmitoyl])AAHDFVEWLLSA-NH2
SMILES: CCCCCCCCCCCCCCCC(=O)N[C@@H](CCC(=O)NCCCC[C@H](NC(=O)[C@H](CO)NC(=O)[C@H](CC(=O)O)NC(=O)[C@H](CC(C)C)NC(=O)[C@H](Cc1ccc(O)cc1)NC(=O)[C@H](CCCCN)NC(=O)[C@H](CO)NC(=O)[C@H](Cc1ccc(O)cc1)NC(=O)[C@H](CC(=O)O)NC(=O)[C@H](CO)NC(=O)[C@@H](NC(=O)[C@H](Cc1ccccc1)NC(=O)[C@@H](NC(=O)CNC(=O)[C@H](CCC(N)=O)NC(=O)C(C)(C)NC(=O)[C@@H](N)Cc1c[nH]cn1)[C@@H](C)O)[C@@H](C)O)C(=O)N[C@@H](C)C(=O)N[C@@H](C)C(=O)N[C@@H](Cc1c[nH]cn1)C(=O)N[C@@H](CC(=O)O)C(=O)N[C@@H](Cc1ccccc1)C(=O)N[C@H](C(=O)N[C@@H](CCC(=O)O)C(=O)N[C@@H](Cc1c[nH]c2ccccc12)C(=O)N[C@@H](CC(C)C)C(=O)N[C@@H](CC(C)C)C(=O)N[C@@H](CO)C(=O)N[C@@H](C)C(N)=O)C(C)C)C(=O)O
B6: Compound 207 (peptide)
peptide: H-H[Aib]QGTFTSDYSKYLDSK([γGlu-Palmitoyl])AARDFVAWLLRA-NH2
SMILES: CCCCCCCCCCCCCCCC(=O)N[C@@H](CCC(=O)NCCCC[C@H](NC(=O)[C@H](CO)NC(=O)[C@H](CC(=O)O)NC(=O)[C@H](CC(C)C)NC(=O)[C@H](Cc1ccc(O)cc1)NC(=O)[C@H](CCCCN)NC(=O)[C@H](CO)NC(=O)[C@H](Cc1ccc(O)cc1)NC(=O)[C@H](CC(=O)O)NC(=O)[C@H](CO)NC(=O)[C@@H](NC(=O)[C@H](Cc1ccccc1)NC(=O)[C@@H](NC(=O)CNC(=O)[C@H](CCC(N)=O)NC(=O)C(C)(C)NC(=O)[C@@H](N)Cc1c[nH]cn1)[C@@H](C)O)[C@@H](C)O)C(=O)N[C@@H](C)C(=O)N[C@@H](C)C(=O)N[C@@H](CCCNC(=N)N)C(=O)N[C@@H](CC(=O)O)C(=O)N[C@@H](Cc1ccccc1)C(=O)N[C@H](C(=O)N[C@@H](C)C(=O)N[C@@H](Cc1c[nH]c2ccccc12)C(=O)N[C@@H](CC(C)C)C(=O)N[C@@H](CC(C)C)C(=O)N[C@@H](CCCNC(=N)N)C(=O)N[C@@H](C)C(N)=O)C(C)C)C(=O)O
B7: Compound 203 (peptide)
peptide: H-HSQGTFTSDYSKYLDSKAAHDFVEWLK([γGlu-Palmitoyl])RA-NH2
SMILES: CCCCCCCCCCCCCCCC(=O)N[C@@H](CCC(=O)NCCCC[C@H](NC(=O)[C@H](CC(C)C)NC(=O)[C@H](Cc1c[nH]c2ccccc12)NC(=O)[C@H](CCC(=O)O)NC(=O)[C@@H](NC(=O)[C@H](Cc1ccccc1)NC(=O)[C@H](CC(=O)O)NC(=O)[C@H](Cc1c[nH]cn1)NC(=O)[C@H](C)NC(=O)[C@H](C)NC(=O)[C@H](CCCCN)NC(=O)[C@H](CO)NC(=O)[C@H](CC(=O)O)NC(=O)[C@H](CC(C)C)NC(=O)[C@H](Cc1ccc(O)cc1)NC(=O)[C@H](CCCCN)NC(=O)[C@H](CO)NC(=O)[C@H](Cc1ccc(O)cc1)NC(=O)[C@H](CC(=O)O)NC(=O)[C@H](CO)NC(=O)[C@@H](NC(=O)[C@H](Cc1ccccc1)NC(=O)[C@@H](NC(=O)CNC(=O)[C@H](CCC(N)=O)NC(=O)[C@H](CO)NC(=O)[C@@H](N)Cc1c[nH]cn1)[C@@H](C)O)[C@@H](C)O)C(C)C)C(=O)N[C@@H](CCCNC(=N)N)C(=O)N[C@@H](C)C(N)=O)C(=O)O
B8: Compound 262 (peptide)
peptide: H-HSQGTFTSDYSKYLDSK([γGlu-Palmitoyl])AAHDFVEWLLRA-NH2
SMILES: CCCCCCCCCCCCCCCC(=O)N[C@@H](CCC(=O)NCCCC[C@H](NC(=O)[C@H](CO)NC(=O)[C@H](CC(=O)O)NC(=O)[C@H](CC(C)C)NC(=O)[C@H](Cc1ccc(O)cc1)NC(=O)[C@H](CCCCN)NC(=O)[C@H](CO)NC(=O)[C@H](Cc1ccc(O)cc1)NC(=O)[C@H](CC(=O)O)NC(=O)[C@H](CO)NC(=O)[C@@H](NC(=O)[C@H](Cc1ccccc1)NC(=O)[C@@H](NC(=O)CNC(=O)[C@H](CCC(N)=O)NC(=O)[C@H](CO)NC(=O)[C@@H](N)Cc1c[nH]cn1)[C@@H](C)O)[C@@H](C)O)C(=O)N[C@@H](C)C(=O)N[C@@H](C)C(=O)N[C@@H](Cc1c[nH]cn1)C(=O)N[C@@H](CC(=O)O)C(=O)N[C@@H](Cc1ccccc1)C(=O)N[C@H](C(=O)N[C@@H](CCC(=O)O)C(=O)N[C@@H](Cc1c[nH]c2ccccc12)C(=O)N[C@@H](CC(C)C)C(=O)N[C@@H](CC(C)C)C(=O)N[C@@H](CCCNC(=N)N)C(=O)N[C@@H](C)C(N)=O)C(C)C)C(=O)O

The binders below were run against human glucagon-like peptide 1 receptor (GLP-1R) (human, UniProt P43220 24-463) (assay: cell-based or functional assay).

Going from B1 to B2, the “EC50 (nM) GLP-1R; cAMP content, HEK293 cells expressing human GLP-1R” value (from here on “EC50 (nM) GLP-1R; cAMP content”) falls from 0.2 nM to 0.09 nM (2.2-fold).

Going from B3 to B4, the “EC50 (nM) GLP-1R; cAMP content” value rises from 0.03 nM to 0.08 nM (2.7-fold).

B5 and B6 are within 1.5-fold of each other in “EC50 (nM) GLP-1R; cAMP content” value: 0.11 nM for the first, 0.12 nM for the second.

Compared with B7, B8 is 5.2-fold lower in “EC50 (nM) GLP-1R; cAMP content” value: 0.57 nM for the first, 0.11 nM for the second.

With H-HSQGTFTSDYSAYLDSRRAQDFVWLMNT-NH2 [Compound 242] the “EC50 (nM) GLP-1R; cAMP content” value was 1.4 nM.

The binders below were run against human glucagon receptor (Glucagon-R) (human, UniProt P47871 26-477) (assay: cell-based or functional assay).
Chain of human glucagon receptor (Glucagon-R) (P47871 26-477): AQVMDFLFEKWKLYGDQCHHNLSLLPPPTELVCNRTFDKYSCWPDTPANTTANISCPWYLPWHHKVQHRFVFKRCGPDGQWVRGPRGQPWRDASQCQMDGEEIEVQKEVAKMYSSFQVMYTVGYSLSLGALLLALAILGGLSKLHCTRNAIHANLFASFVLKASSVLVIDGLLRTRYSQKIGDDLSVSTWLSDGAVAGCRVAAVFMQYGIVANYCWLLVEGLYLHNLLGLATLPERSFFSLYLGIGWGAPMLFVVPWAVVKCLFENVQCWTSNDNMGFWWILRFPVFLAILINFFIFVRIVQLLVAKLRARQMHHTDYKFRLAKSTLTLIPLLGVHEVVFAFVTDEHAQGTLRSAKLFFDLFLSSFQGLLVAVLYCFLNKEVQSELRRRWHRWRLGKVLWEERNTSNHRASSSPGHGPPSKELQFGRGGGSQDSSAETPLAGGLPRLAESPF

B1 and B2 are within 1.5-fold of each other in “EC50 (nM) GuR; cAMP content, HEK293 cells expressing the human glucagon receptor” value (“EC50 (nM) GuR; cAMP content” for short): 0.13 nM for the first, 0.11 nM for the second.

B3 and B4 are within 1.5-fold of each other in “EC50 (nM) GuR; cAMP content” value: 0.07 nM for the first, 0.06 nM for the second.

B5 and B6 are within 1.5-fold of each other in “EC50 (nM) GuR; cAMP content” value: 0.16 nM for the first, 0.17 nM for the second.

First: B7
Second: B8
The “EC50 (nM) GuR; cAMP content” value of the first is 1.8-fold higher: 0.22 nM for the first, 0.12 nM for the second.

In the case of H-HSQGTFTSDYSAYLDSRRAQDFVWLMNT-NH2 [Compound 242], the “EC50 (nM) GuR; cAMP content” value is reported as 0.4 nM.
